The Human Domainome abundance scans (Beltran et al. 2025)
± gives the uncertainty stated by the source.

B1: Protein C-ets-1, residues 55 to 135; numbered along this chain, P14921 (parent)
chain: GFTKEQQRLGIPKDPRQWTETHVRDWVMWAVNEFSLKGVDFQKFCMNGAALCALGKDCFLELAPDFVGDILWEHLEILQKE

Variants of: B1
Test: abundance fitness (aPCA) (normalised: wild type 0, dead -1); higher = more abundant; growth selection in yeast, the domain comes from the species named
Details: Homo sapiens

| Variant | abundance fitness |
| --- | --- |
| GFTKEQQRLGIPKDPRQWTETHVCDWVMWAVNEFSLKGVDFQKFCMNGAALCALGKDCFLELAPDFVGDILWEHLEILQKE | -0.111 ± 0.068 |
| GFTKEQQRLGIPKDPRQWTETHVKDWVMWAVNEFSLKGVDFQKFCMNGAALCALGKDCFLELAPDFVGDILWEHLEILQKE | 0.096 ± 0.075 |
| GFTKEQQRLGIPKDPRQWTETHVPDWVMWAVNEFSLKGVDFQKFCMNGAALCALGKDCFLELAPDFVGDILWEHLEILQKE | -1.03 ± 0.13 |
| GFTKEQQRLGIPKDPRQWTETHVSDWVMWAVNEFSLKGVDFQKFCMNGAALCALGKDCFLELAPDFVGDILWEHLEILQKE | -0.152 ± 0.035 |
| GFTKEQQRLGIPKDPRQWTETHVNDWVMWAVNEFSLKGVDFQKFCMNGAALCALGKDCFLELAPDFVGDILWEHLEILQKE | -0.062 ± 0.11 |
| GFTKEQQRLGIPKDPRQWTETHVWDWVMWAVNEFSLKGVDFQKFCMNGAALCALGKDCFLELAPDFVGDILWEHLEILQKE | -0.3 ± 0.047 |
| GFTKEQQRLGIPKDPRQWTETHVLDWVMWAVNEFSLKGVDFQKFCMNGAALCALGKDCFLELAPDFVGDILWEHLEILQKE | -0.05 ± 0.034 |
| GFTKEQQRLGIPKDPRQWTETHVADWVMWAVNEFSLKGVDFQKFCMNGAALCALGKDCFLELAPDFVGDILWEHLEILQKE | -0.087 ± 0.046 |
| GFTKEQQRLGIPKDPRQWTETHVHDWVMWAVNEFSLKGVDFQKFCMNGAALCALGKDCFLELAPDFVGDILWEHLEILQKE | 0.051 ± 0.087 |
| GFTKEQQRLGIPKDPRQWTETHVFDWVMWAVNEFSLKGVDFQKFCMNGAALCALGKDCFLELAPDFVGDILWEHLEILQKE | -0.287 ± 0.088 |
| GFTKEQQRLGIPKDPRQWTETHVVDWVMWAVNEFSLKGVDFQKFCMNGAALCALGKDCFLELAPDFVGDILWEHLEILQKE | -0.059 ± 0.043 |
| GFTKEQQRLGIPKDPRQWTETHVEDWVMWAVNEFSLKGVDFQKFCMNGAALCALGKDCFLELAPDFVGDILWEHLEILQKE | -0.275 ± 0.05 |
| GFTKEQQRLGIPKDPRQWTETHVDDWVMWAVNEFSLKGVDFQKFCMNGAALCALGKDCFLELAPDFVGDILWEHLEILQKE | -0.827 ± 0.13 |
| GFTKEQQRLGIPKDPRQWTETHVQDWVMWAVNEFSLKGVDFQKFCMNGAALCALGKDCFLELAPDFVGDILWEHLEILQKE | -0.039 ± 0.038 |
| GFTKEQQRLGIPKDPRQWTETHVTDWVMWAVNEFSLKGVDFQKFCMNGAALCALGKDCFLELAPDFVGDILWEHLEILQKE | -0.087 ± 0.052 |
| GFTKEQQRLGIPKDPRQWTETHVIDWVMWAVNEFSLKGVDFQKFCMNGAALCALGKDCFLELAPDFVGDILWEHLEILQKE | -0.133 ± 0.12 |
| GFTKEQQRLGIPKDPRQWTETHVMDWVMWAVNEFSLKGVDFQKFCMNGAALCALGKDCFLELAPDFVGDILWEHLEILQKE | 0.023 ± 0.062 |
| GFTKEQQRLGIPKDPRQWTETHDRDWVMWAVNEFSLKGVDFQKFCMNGAALCALGKDCFLELAPDFVGDILWEHLEILQKE | -0.906 ± 0.13 |
| GFTKEQQRLGIPKDPRQWTETHMRDWVMWAVNEFSLKGVDFQKFCMNGAALCALGKDCFLELAPDFVGDILWEHLEILQKE | -0.916 ± 0.13 |
| GFTKEQQRLGIPKDPRQWTETHPRDWVMWAVNEFSLKGVDFQKFCMNGAALCALGKDCFLELAPDFVGDILWEHLEILQKE | -0.985 ± 0.12 |
| GFTKEQQRLGIPKDPRQWTETHTRDWVMWAVNEFSLKGVDFQKFCMNGAALCALGKDCFLELAPDFVGDILWEHLEILQKE | -0.126 ± 0.05 |
| GFTKEQQRLGIPKDPRQWTETHGRDWVMWAVNEFSLKGVDFQKFCMNGAALCALGKDCFLELAPDFVGDILWEHLEILQKE | -0.967 ± 0.079 |
| GFTKEQQRLGIPKDPRQWTETHKRDWVMWAVNEFSLKGVDFQKFCMNGAALCALGKDCFLELAPDFVGDILWEHLEILQKE | -0.904 ± 0.2 |

| Variant | abundance fitness |
| --- | --- |
| GFTKEQQRLGIPKDPRQWTETHFRDWVMWAVNEFSLKGVDFQKFCMNGAALCALGKDCFLELAPDFVGDILWEHLEILQKE | -0.857 ± 0.11 |
| GFTKEQQRLGIPKDPRQWTETHRRDWVMWAVNEFSLKGVDFQKFCMNGAALCALGKDCFLELAPDFVGDILWEHLEILQKE | -0.686 ± 0.059 |
| GFTKEQQRLGIPKDPRQWTETHYRDWVMWAVNEFSLKGVDFQKFCMNGAALCALGKDCFLELAPDFVGDILWEHLEILQKE | -0.955 ± 0.2 |
| GFTKEQQRLGIPKDPRQWTETHIRDWVMWAVNEFSLKGVDFQKFCMNGAALCALGKDCFLELAPDFVGDILWEHLEILQKE | -0.438 ± 0.045 |
| GFTKEQQRLGIPKDPRQWTETHARDWVMWAVNEFSLKGVDFQKFCMNGAALCALGKDCFLELAPDFVGDILWEHLEILQKE | -0.631 ± 0.054 |
| GFTKEQQRLGIPKDPRQWTETHCRDWVMWAVNEFSLKGVDFQKFCMNGAALCALGKDCFLELAPDFVGDILWEHLEILQKE | -0.559 ± 0.08 |
| GFTKEQQRLGIPKDPRQWTETHNRDWVMWAVNEFSLKGVDFQKFCMNGAALCALGKDCFLELAPDFVGDILWEHLEILQKE | -0.858 ± 0.24 |
| GFTKEQQRLGIPKDPRQWTETHHRDWVMWAVNEFSLKGVDFQKFCMNGAALCALGKDCFLELAPDFVGDILWEHLEILQKE | -0.838 ± 0.24 |
| GFTKEQQRLGIPKDPRQWTETHWRDWVMWAVNEFSLKGVDFQKFCMNGAALCALGKDCFLELAPDFVGDILWEHLEILQKE | -0.822 ± 0.1 |
| GFTKEQQRLGIPKDPRQWTETHERDWVMWAVNEFSLKGVDFQKFCMNGAALCALGKDCFLELAPDFVGDILWEHLEILQKE | -1.03 ± 0.26 |
| GFTKEQQRLGIPKDPRQWTETHLRDWVMWAVNEFSLKGVDFQKFCMNGAALCALGKDCFLELAPDFVGDILWEHLEILQKE | -0.728 ± 0.06 |
| GFTKEQQRLGIPKDPRQWTETHSRDWVMWAVNEFSLKGVDFQKFCMNGAALCALGKDCFLELAPDFVGDILWEHLEILQKE | -0.48 ± 0.034 |
| GFTKEQQRLGIPKDPRQWTETHQRDWVMWAVNEFSLKGVDFQKFCMNGAALCALGKDCFLELAPDFVGDILWEHLEILQKE | -0.909 ± 0.11 |
| GFTKEQQRLGIPKDPRQWTETDVRDWVMWAVNEFSLKGVDFQKFCMNGAALCALGKDCFLELAPDFVGDILWEHLEILQKE | -0.047 ± 0.066 |
| GFTKEQQRLGIPKDPRQWTETFVRDWVMWAVNEFSLKGVDFQKFCMNGAALCALGKDCFLELAPDFVGDILWEHLEILQKE | -0.965 ± 0.24 |
| GFTKEQQRLGIPKDPRQWTETWVRDWVMWAVNEFSLKGVDFQKFCMNGAALCALGKDCFLELAPDFVGDILWEHLEILQKE | -0.904 ± 0.1 |
| GFTKEQQRLGIPKDPRQWTETNVRDWVMWAVNEFSLKGVDFQKFCMNGAALCALGKDCFLELAPDFVGDILWEHLEILQKE | 0.023 ± 0.11 |
| GFTKEQQRLGIPKDPRQWTETTVRDWVMWAVNEFSLKGVDFQKFCMNGAALCALGKDCFLELAPDFVGDILWEHLEILQKE | -0.528 ± 0.049 |
| GFTKEQQRLGIPKDPRQWTETLVRDWVMWAVNEFSLKGVDFQKFCMNGAALCALGKDCFLELAPDFVGDILWEHLEILQKE | -0.687 ± 0.061 |
| GFTKEQQRLGIPKDPRQWTETAVRDWVMWAVNEFSLKGVDFQKFCMNGAALCALGKDCFLELAPDFVGDILWEHLEILQKE | -0.33 ± 0.032 |
| GFTKEQQRLGIPKDPRQWTETKVRDWVMWAVNEFSLKGVDFQKFCMNGAALCALGKDCFLELAPDFVGDILWEHLEILQKE | -1.07 ± 0.27 |
| GFTKEQQRLGIPKDPRQWTETGVRDWVMWAVNEFSLKGVDFQKFCMNGAALCALGKDCFLELAPDFVGDILWEHLEILQKE | -0.565 ± 0.043 |
| GFTKEQQRLGIPKDPRQWTETMVRDWVMWAVNEFSLKGVDFQKFCMNGAALCALGKDCFLELAPDFVGDILWEHLEILQKE | -0.18 ± 0.034 |

| Variant | abundance fitness |
| --- | --- |
| GFTKEQQRLGIPKDPRQWTETIVRDWVMWAVNEFSLKGVDFQKFCMNGAALCALGKDCFLELAPDFVGDILWEHLEILQKE | -0.881 ± 0.17 |
| GFTKEQQRLGIPKDPRQWTETCVRDWVMWAVNEFSLKGVDFQKFCMNGAALCALGKDCFLELAPDFVGDILWEHLEILQKE | -0.801 ± 0.12 |
| GFTKEQQRLGIPKDPRQWTETRVRDWVMWAVNEFSLKGVDFQKFCMNGAALCALGKDCFLELAPDFVGDILWEHLEILQKE | -0.818 ± 0.061 |
| GFTKEQQRLGIPKDPRQWTETPVRDWVMWAVNEFSLKGVDFQKFCMNGAALCALGKDCFLELAPDFVGDILWEHLEILQKE | -0.85 ± 0.11 |
| GFTKEQQRLGIPKDPRQWTETSVRDWVMWAVNEFSLKGVDFQKFCMNGAALCALGKDCFLELAPDFVGDILWEHLEILQKE | -0.472 ± 0.044 |
| GFTKEQQRLGIPKDPRQWTETEVRDWVMWAVNEFSLKGVDFQKFCMNGAALCALGKDCFLELAPDFVGDILWEHLEILQKE | -0.062 ± 0.057 |
| GFTKEQQRLGIPKDPRQWTETVVRDWVMWAVNEFSLKGVDFQKFCMNGAALCALGKDCFLELAPDFVGDILWEHLEILQKE | -0.673 ± 0.054 |
| GFTKEQQRLGIPKDPRQWTETYVRDWVMWAVNEFSLKGVDFQKFCMNGAALCALGKDCFLELAPDFVGDILWEHLEILQKE | -0.625 ± 0.15 |
| GFTKEQQRLGIPKDPRQWTETQVRDWVMWAVNEFSLKGVDFQKFCMNGAALCALGKDCFLELAPDFVGDILWEHLEILQKE | -0.063 ± 0.049 |
| GFTKEQQRLGIPKDPRQWTEKHVRDWVMWAVNEFSLKGVDFQKFCMNGAALCALGKDCFLELAPDFVGDILWEHLEILQKE | -0.022 ± 0.073 |
| GFTKEQQRLGIPKDPRQWTESHVRDWVMWAVNEFSLKGVDFQKFCMNGAALCALGKDCFLELAPDFVGDILWEHLEILQKE | -0.016 ± 0.032 |
| GFTKEQQRLGIPKDPRQWTELHVRDWVMWAVNEFSLKGVDFQKFCMNGAALCALGKDCFLELAPDFVGDILWEHLEILQKE | -0.064 ± 0.037 |
| GFTKEQQRLGIPKDPRQWTEVHVRDWVMWAVNEFSLKGVDFQKFCMNGAALCALGKDCFLELAPDFVGDILWEHLEILQKE | -0.041 ± 0.041 |
| GFTKEQQRLGIPKDPRQWTEYHVRDWVMWAVNEFSLKGVDFQKFCMNGAALCALGKDCFLELAPDFVGDILWEHLEILQKE | 0.043 ± 0.12 |
| GFTKEQQRLGIPKDPRQWTEFHVRDWVMWAVNEFSLKGVDFQKFCMNGAALCALGKDCFLELAPDFVGDILWEHLEILQKE | -0.11 ± 0.07 |
| GFTKEQQRLGIPKDPRQWTEIHVRDWVMWAVNEFSLKGVDFQKFCMNGAALCALGKDCFLELAPDFVGDILWEHLEILQKE | -0.143 ± 0.056 |
| GFTKEQQRLGIPKDPRQWTEQHVRDWVMWAVNEFSLKGVDFQKFCMNGAALCALGKDCFLELAPDFVGDILWEHLEILQKE | 0.002 ± 0.053 |
| GFTKEQQRLGIPKDPRQWTEHHVRDWVMWAVNEFSLKGVDFQKFCMNGAALCALGKDCFLELAPDFVGDILWEHLEILQKE | -0.067 ± 0.074 |
| GFTKEQQRLGIPKDPRQWTEMHVRDWVMWAVNEFSLKGVDFQKFCMNGAALCALGKDCFLELAPDFVGDILWEHLEILQKE | -0.058 ± 0.059 |
| GFTKEQQRLGIPKDPRQWTERHVRDWVMWAVNEFSLKGVDFQKFCMNGAALCALGKDCFLELAPDFVGDILWEHLEILQKE | 0.039 ± 0.029 |
| GFTKEQQRLGIPKDPRQWTEGHVRDWVMWAVNEFSLKGVDFQKFCMNGAALCALGKDCFLELAPDFVGDILWEHLEILQKE | -0.008 ± 0.029 |
| GFTKEQQRLGIPKDPRQWTEWHVRDWVMWAVNEFSLKGVDFQKFCMNGAALCALGKDCFLELAPDFVGDILWEHLEILQKE | -0.196 ± 0.057 |
